One may read the EC50 (read off the curve) as the concentration at which the effect is half-maximal. Low values mean a more potent agent, high ones a less potent agent.

From patent US20230057263A1 (CYTOMX THERAPEUTICS, published 2023) come the findings set out here.

No end group written: not given here. *: point of attachment. Biotin = O=C1N[C@H]2[C@H](CS[C@H]2CCCCC(=O)*)N1; code X = not defined here

The target in experiment [1] is T1, B X TPYKVSISGTTVILT (reading uncertain).
T1 construct: row 14 of the chart; also called biotinylated 15-mer, residues 13-27
T1 peptide: {Biotin-code X}-TPYKVSISGTTVILT
The experiment can be described thus: Luminex bead assay [Cont.]. Here is the method:
(§1) A set of experiments was performed to map the epitope recognized by the anti-CD3ε antibodies. In these experiments, the anti-CD3ε antibodies were assessed for binding to a collection of overlapping 15-mer peptides spanning amino acids 1-27 of human CD3ε protein using a Luminex bead assay. Control CD3 proteins, control peptides, or the test peptides were immobilized on Luminex beads and incubated with a panel of anti-CD3 antibodies. Binding of the anti-CD3 antibodies to the peptide/protein immobilized on the Luminex bead was detected by R-Phycoerythrin conjugated secondary antibody.
(§2) Recombinant CD3 proteins (human CD3d/e heterodimer and cynomolgus CD3-epsilon (Sinobiological)) and control peptides (#p1, #p2, and #p3) were conjugated to Luminex beads using standard EDC/Sulfo-NHS chemistry. The 15-mer test peptides were synthesized as biotinylated peptides at JPT Peptide Technologies Gmbh and were immobilized on streptavidin-conjugated Luminex beads that were made using standard EDC/Sulfo-NHS chemistry and streptavidin (Invitrogen Cat. No. 434301 lot 1626028A). The Luminex beads with immobilized peptides or reagents were incubated with 50 ul of a panel of anti-CD3 antibodies (1 ug/ml) for one hour at room temperature, washed two times, incubated with mixture of anti-human and anti-mouse IgG-RPE (Jackson Immunoresearch 109-116-097 and Southern Biotech 1030-09, respectively) for 30 mins at RT, washed three times, and analyzed in the Luminex instrument to assess the level of bound anti-CD3 antibodies.

For experiment [2], the target named is T2, B X QDANEEMGGITQTP (reading uncertain).
T2 construct: row 17 of the chart; 14 residues; also called alanine-scan peptide G3A
T2 peptide: {Biotin-code X}-QDANEEMGGITQTP
Nature of the experiment: Luminex bead assay [Cont.]. As for the experimental part: as §1, §2

The target in experiment [3] is T3, B X GGITQTPYKVSISGT (reading uncertain).
T3 construct: row 9 of the chart; also called biotinylated 15-mer, residues 8-22
T3 peptide: {Biotin-code X}-GGITQTPYKVSISGT
Nature of the experiment: Luminex bead assay [Cont.]. Here is the method:
as §1, §2

For experiment [4], the target named is T4, B X EEMGGITQTPYKVSI (reading uncertain).
T4 construct: row 6 of the chart; also called biotinylated 15-mer, residues 5-19
T4 peptide: {Biotin-code X}-EEMGGITQTPYKVSI
The experiment can be described thus: Luminex bead assay [Cont.]. As for the experimental part:
as §1, §2

The target of experiment [5] is T5, B X QAGNEEMGGITQTP (reading uncertain).
T5 construct: row 16 of the chart; also called alanine-scan peptide D2A
T5 peptide: {Biotin-code X}-QAGNEEMGGITQTP
The experiment can be described thus: Luminex bead assay [Cont.]. As for the experimental part: as §1, §2

The target of experiment [6] is T6, B X MGGITQTPYKVSISG (reading uncertain).
T6 construct: row 8 of the chart; also called biotinylated 15-mer, residues 7-21
T6 peptide: {Biotin-code X}-MGGITQTPYKVSISG
The experiment can be described thus: Luminex bead assay [Cont.]. As for the experimental part: as §1, §2

The target of experiment [7] is T7, B X TQTPYKVSISGTTVI (reading uncertain).
T7 construct: row 12 of the chart; also called biotinylated 15-mer, residues 11-25
T7 peptide: {Biotin-code X}-TQTPYKVSISGTTVI
Nature of the experiment: Luminex bead assay [Cont.]. Here is the method:
as §1, §2

The target in experiment [8] is T8, human CD3 epsilon (CD3ε) (human, UniProt P07766 23-207).
T8 construct: Present on donor human T cells as part of the TCR-CD3 complex; also called CD3ε on human T cells
Nature of the experiment: flow cytometry on human T cells. Here is the method: In these experiments, human or cynomolgus T cells were incubated with an anti-CD3ε antibody and binding was assessed by flow cytometry.
Briefly, donor T cells from either human or cynomolgus donors were resuspended in FACS buffer containing 0.1% sodium azide and aliquoted in 100 μL volumes. For incubation, 100 μL aliquots of donor T cells were mixed with 50 μL of antibodies diluted in FACS buffer containing 0.1% sodium azide. The cells were then washed twice with FACS buffer containing sodium azide. The bound antibody was detected by incubating cells for 60 minutes with a 1:200 dilution of SAV-RPE (Invitrogen Cat No. SA10044, Lot. 1542820A) or 1:100 dilution of goat-anti-Mouse Fcγ-RPE (Jackson Cat. No. 115-116-071, Lot. 108668, diluted in 0.2% goat serum). The cells were washed, fixed, and analyzed with an Accuri Flow Cytometer.
Treatment with OKT3, SP34-2, and diL2K antibodies were used as positive controls for T cell binding. […] Treatment with OKT3, SP34-2, and diL2K antibodies were used as controls for T cell binding with only SP34-2 binding to cynomolgus T cells, as expected.
(In general: Flow cytometry measures light scatter and fluorescence of single cells or particles in a stream.)

B1: 6d59 (antibody, V domains shown)
VH: QVHLVESGGGVVQPGRSLRLSCAASGFKFRSYGMHWVRQAPGKGLEWVAIIWYDGSKRYYADSVKGRFTISRDNSKNTLYLQMSSLRAEDTAVYYCARDLITGTTDYWGQGTLVTVSS
VL: DVVMTQSPLSLPVTLGQPASISCRSSRSLVYSDGNTHLIWFQQRPGQSPRRLIYRVSNRVSGVPDRFSGSGSGTDFTLKISRVEAEDVGVYYCLQGAHWPYTFGQGTKLEIKR
notes: also called 6d59.1; VCD3-6d59.1
For the molecule B1, the binding result in experiment [1], in experiment [2], in experiment [3], in experiment [4], in experiment [5] and in experiment [6] was “no binding (tested: 1 ug/ml)” in each case. The binding result in experiment [7] is listed as “no binding (tested: 1 ug/ml)”. Besides, the “EC50 (read off the curve)” value in experiment [8] is ~60 pM.
